Assay results from patent publication US10287317B2, “Proprotein convertase subtilisin kexin type 9 (PCSK9) allosteric binding ligands to modulate serum low density lipoprotein (LDL) levels” (SRX Cardio, LLC, priority 2013, dated 2019).
Where no end group is shown, it is not given here.

Columns and labels:
PCSK9 GOF-D374Y protein = PCSK9 GOF-D374Y protein (Homo sapiens, UniProt Q8NBP7, D374Y); experiment: Cellular diI-LDL uptake in HepG2 cells with PCSK9 GOF-D374Y; type: cell-based
Description: […] After 16 h, dil-LDL (5 ug/ml) was added to the incubation mixtures. After 4 h, fluorescence was measured (Ex: 520 nm/Em: 575 nm; cutoff: 550 nm). Dil-LDL uptake is calculated as RFU corrected for the number of cells.
After 16 h, dil-LDL (5 ug/ml) was added to the incubation mixtures. After 4 h, fluorescence was measured (Ex: 520 nm/Em: 575 nm; cutoff: 550 nm). Dil-LDL uptake is calculated as RFU corrected for the number of cells. The PCSK9 and −/+SRX55 [SEQ ID NO: 2] mixtures were pre-incubated for 3 hrs at 37 C prior to addition to the cells.
LDL internalization was measured by uptake of a fluorescently tagged LDL molecule (diI-LDL) in the absence of exogenous PCSK9 (Cnt), in the presence of exogenous PCSK9 (normal PCSK9=WT, D374Y mutant PCSK9=DY), or in the presence of PCSK9 and a tested peptide (indicated as SRX##, or SRX if a single peptide results is shown in a graph). […]
Peptide activity was assessed by culturing cells with: i) no SRX peptide/PCSK9 protein complex (control, Cnt); ii) PCSK9 protein; and iii) SRX peptide/PCSK9 complex. […]
Cells were cultured using one of the combinations of conditions described in the preceding paragraph for 16 hours. […] Cell specimens were rinsed twice with PBS and then fluorescence measured with excitation at 360 nm and emission detected at 460 nm to measure DNA content. […]

PCSK9-WT protein = molecular target: T1, PCSK9-WT protein (Homo sapiens, UniProt Q8NBP7); experiment: FACS analysis of cell surface LDLR in HuH7 cells with PCSK9-WT; type: cell-based
T1 construct: V5
Description: HuH7 cells were incubated for 18 h in the absence (Cnt) or presence of 0.75 μg/ml PCSK9-WT protein alone (WT) or mixed with 100 μM of various SRX peptides. The level of LDLR at the cell surface was measured by FACS using anti human LDLR Ab and a suitable secondary Ab labeled with Alexa 647. Cell surface LDLR is reported relative to Cnt. % inhibition of activity was calculated as [SRX−WT]/[Cnt−WT]×100%.
See, FIG. 1. In that experiment, the LDLR levels of a hepatocyte culture model (HuH7 cells) were measured by fluorescence activated cell sorting (FACS) in accordance with Example III. Cell surface LDLR is reported as a percentage of Basal levels of LDLR, indicated by the Cnt_Amm.Bic, Cnt_Ac.Acid, and Cnt bars in the top graph. See, FIG. 1 (top panel). LDLR levels in the presence of exogenous PCSK9 is indicated as WT_Amm.Bic, WT-Ac.Acid, and WT, and Exogenous PCSK9 in combination with a tested peptide is indicated as SRX##. The measured LDLR levels are reported as % versus basal controls (Cnt) of the respective group. […] This was further shown a percent inhibition (% inhibition was calculated as [SRX−WT]/[Cnt−WT]×100%) where positive modulation (increase) of LDLR level is reported as positive % inhibition, and negative modulation (decrease) of LDLR level is reported as negative % inhibition. See, FIG. 1 (bottom panel).
Benjannet et al., “Effects of the prosegment and pH on the activity of PCSK9: evidence for additional processing events” J Biol Chem. 285(52): 40965-40978 (2010). The cells were then washed 3× with solution A (calcium/magnesium-free Dulbecco's PBS (Invitrogen) containing 0.5% bovine serum albumin (Sigma) and 1 g/liter glucose)). The cells were then incubated for 10 min at room temperature with 1× Versene solution (Invitrogen) followed by the addition of 5 ml of solution A. The cells were then incubated for 40 min in solution A containing a human LDLR mAb-C7 (1:100; Santa Cruz Biotechnology). Following washes, the cells were then incubated for 20 min in solution A containing a secondary antibody (Alexa Fluor 647 donkey anti-mouse antibody; 1:250; Molecular Probes).
Following suspension in PBS containing 0.2% of propidium iodide, the cells were analyzed by FACS for both propidium iodide (dead cells) and LDLR in live cells with Alexa Fluor 647 using the FACS BD LSR (BD Biosciences).

T1 sequence (Q8NBP7 153-692): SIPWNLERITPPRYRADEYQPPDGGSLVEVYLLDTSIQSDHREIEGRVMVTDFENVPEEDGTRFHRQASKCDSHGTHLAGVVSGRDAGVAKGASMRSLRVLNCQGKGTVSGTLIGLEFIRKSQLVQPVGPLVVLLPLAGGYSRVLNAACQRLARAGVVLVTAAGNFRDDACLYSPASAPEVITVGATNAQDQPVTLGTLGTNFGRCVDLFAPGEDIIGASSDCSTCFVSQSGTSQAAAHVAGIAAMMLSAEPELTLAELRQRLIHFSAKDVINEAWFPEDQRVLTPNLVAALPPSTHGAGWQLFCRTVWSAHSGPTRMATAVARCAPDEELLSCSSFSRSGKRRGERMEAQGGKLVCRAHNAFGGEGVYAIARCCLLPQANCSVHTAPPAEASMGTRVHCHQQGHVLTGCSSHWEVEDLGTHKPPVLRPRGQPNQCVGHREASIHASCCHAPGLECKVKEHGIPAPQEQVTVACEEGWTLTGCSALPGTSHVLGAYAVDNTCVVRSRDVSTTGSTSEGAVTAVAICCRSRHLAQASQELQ
Sequence of PCSK9 GOF-D374Y protein (Q8NBP7 153-692 D374Y): as the sequence (Q8NBP7 153-692) above, with D222Y counted along it

## Val-Tyr-Val-Arg-Phe-Trp (VYVRFW; not fully specified (C-terminus); printed as Val-Tyr-Val-Arg-Phe-Trp) [Compound 1]
PCSK9 GOF-D374Y protein; HepG2, 2 μg/ml PCSK9 GOF-D374Y, dose dependent manner (FIG. 5)
  LDL internalization (dil-LDL % uptake vs Cnt): positively modulated (increased)
PCSK9 GOF-D374Y protein; HepG2, D374Y 0.6 ug/ml, pre-incubated 3 hrs at 37 C, dose dependent manner (FIG. 6)
  LDL internalization (dil-LDL % uptake vs Cnt): positively modulated (increased)
PCSK9-WT protein; HuH7 cells, FACS, exogenous WT PCSK9 plus peptide (FIG. 1, 100 μM)
  modulation of LDLR cell surface level: positively modulate (increase)
PCSK9-WT protein; WT PCSK9, FACS in HuH7 cells
  increase of cell surface expression of LDL-R: 100%
